Reference: the supplement of paper PMC7877785
± gives the uncertainty stated by the source.

Assay: self-splicing fitness, log relative to wild type (ln ratio); higher = more splicing; Tetrahymena group I intron in knt gene, E. coli kanamycin selection, DiMSum; sequences stand for … in CUCUCU…GGAGGGAAAAGUUAUCAGGCAUGCACCUGGUAGCUAGUCUUUAAACCAAUAGAUUGCAUCGGUUUAAAAGGCAAGACCGUCAAAUUGCGGGAAAGGGGUCAACAGCCGUUCAGUACCAAGUCUCAGGGGAAACUUUGAGAUGGCCUUGCAAAGGGUAUGGUAAUAAGCUGACGGACAUGGUCCUAACCACGCAGCCAAGUCCUAAGUCAACAGAUCUUCUGUUGAUAUGGAUGCAGUUCACAGACUAAAUGUCGGUCGGGGAAGAUGUAUUCUUCUCAUAAGAUAUAGUCGGACCUCUCCUUAAUGGGAGCUAGCGGAUGAAGUGAUGCAACACUGGAGCCGCUGGGAACUAAUUUGUAUGCGAAAGUAUAUUGAUUAGUUUUGGAGUACUCGUGGUCG
Procedure, shortened: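 Library with all eight P1ex-region intron nucleotides randomised, intron inside the knt kanamycin-resistance gene on pET-22b(+), in E. coli BL21(DE3). Cells grew overnight at 37°C or 30°C on LB agar with or without 25 μg/mL kanamycin (plus 100 μg/mL carbenicillin, 50 μM IPTG, 0.2% rhamnose), in six replicate transformations. Pooled colonies were amplicon-sequenced on Illumina HiSeq 2500. DiMSum fitness is the error-weighted combination of wild-type-normalised replicate fold changes, kanamycin versus none.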

Row | Sequence | self-splicing fitness (ln) (37 °C) | self-splicing fitness (ln) (30 °C)
1 | CCAGAGCAAUAUUACGCACC | -2.37 ± 0.34 | –
2 | CUAUAGCAAUAUUACGCGGC | 0.45 ± 0.25 | -1.25 ± 0.26
3 | UAGAAGCAAUAUUACGGCGA | -0.385 ± 0.24 | 0.119 ± 0.22
4 | AUUCAGCAAUAUUACGGUAC | -0.675 ± 0.094 | -2.27 ± 0.11
5 | CCAGAGCAAUAUUACGGCAC | -2.73 ± 0.27 | -3.21 ± 0.32
6 | GCGUAGCAAUAUUACGCAAA | -3.44 ± 0.42 | -2.37 ± 0.33
7 | UAUCAGCAAUAUUACGGACG | 0.00709 ± 0.11 | -0.108 ± 0.091
8 | UGCCAGCAAUAUUACGUAAG | -1.24 ± 0.083 | -2 ± 0.067
9 | UGAUAGCAAUAUUACGAACA | 0.324 ± 0.26 | -0.502 ± 0.18
10 | GGGAAGCAAUAUUACGCAAC | -1.03 ± 0.18 | -3.36 ± 0.17
11 | AUGAAGCAAUAUUACGGACC | 0.108 ± 0.23 | -0.516 ± 0.22
12 | AUAGAGCAAUAUUACGACGG | -0.742 ± 0.26 | -2.52 ± 0.18
13 | UAGAAGCAAUAUUACGUCGU | -0.904 ± 0.1 | -1.75 ± 0.097
14 | AUCGAGCAAUAUUACGCCCC | – | -2.24 ± 0.44
15 | AUUAAGCAAUAUUACGAUUU | 1.04 ± 0.12 | -0.227 ± 0.091
16 | ACUUAGCAAUAUUACGGGCC | -2.35 ± 0.42 | -2.42 ± 0.28
17 | CACUAGCAAUAUUACGGGAC | -1.7 ± 0.18 | -3.86 ± 0.21
18 | UUGGAGCAAUAUUACGUAGA | -1.77 ± 0.18 | -3.22 ± 0.27
19 | CUUAAGCAAUAUUACGAGCG | -0.156 ± 0.15 | -0.691 ± 0.1
20 | CCACAGCAAUAUUACGUGCG | -1.72 ± 0.12 | -2.79 ± 0.11
21 | CUUAAGCAAUAUUACGAGUA | -1.94 ± 0.2 | -3.63 ± 0.24
22 | GCUAAGCAAUAUUACGCGCG | -0.075 ± 0.13 | -0.427 ± 0.084
23 | CGCGAGCAAUAUUACGGUUG | -1.76 ± 0.12 | -1.73 ± 0.068
24 | CCCGAGCAAUAUUACGCGAU | -2.5 ± 0.34 | -1.12 ± 0.19
25 | CAUAAGCAAUAUUACGAGCG | 0.0464 ± 0.088 | 0.0605 ± 0.064
26 | ACUAAGCAAUAUUACGUUAU | -1.55 ± 0.11 | -3.49 ± 0.13
27 | AGAGAGCAAUAUUACGUCAA | – | -2.29 ± 0.5

Row | Sequence | self-splicing fitness (ln) (37 °C) | self-splicing fitness (ln) (30 °C)
28 | GCUCAGCAAUAUUACGAAAC | -0.851 ± 0.17 | -0.549 ± 0.14
29 | CUUUAGCAAUAUUACGGAGU | -2.46 ± 0.48 | –
30 | UGCCAGCAAUAUUACGUGUU | -1.67 ± 0.075 | -2.74 ± 0.1
31 | CGUCAGCAAUAUUACGCAUC | -2.89 ± 0.4 | -2.47 ± 0.4
32 | CGGGAGCAAUAUUACGUCCG | – | -1.07 ± 0.43
33 | AGGCAGCAAUAUUACGUGAG | -0.526 ± 0.09 | -0.654 ± 0.066
34 | AGCAAGCAAUAUUACGACUA | -0.326 ± 0.13 | -0.478 ± 0.11
35 | GGUGAGCAAUAUUACGCCAC | – | -1.24 ± 0.44
36 | GGGAAGCAAUAUUACGCUGU | -1.45 ± 0.16 | -2.38 ± 0.14
37 | GCUCAGCAAUAUUACGGAGA | 0.284 ± 0.14 | -0.638 ± 0.095
38 | GUCCAGCAAUAUUACGCGUU | 0.304 ± 0.1 | -0.325 ± 0.078
39 | CAGCAGCAAUAUUACGAUGA | -1.31 ± 0.14 | -2.7 ± 0.21
40 | CCAAAGCAAUAUUACGCUCG | -0.271 ± 0.12 | -1.97 ± 0.11
41 | UAGGAGCAAUAUUACGCAAU | -1.73 ± 0.38 | –
42 | AAAAAGCAAUAUUACGCUUU | -2.32 ± 0.19 | -4.64 ± 0.27
43 | ACCAAGCAAUAUUACGAACC | -0.978 ± 0.12 | -1.62 ± 0.1
44 | CCAUAGCAAUAUUACGCAAU | -2.64 ± 0.15 | -3.67 ± 0.15
45 | CGUGAGCAAUAUUACGGUCU | -2.16 ± 0.42 | -2.56 ± 0.17
46 | CCGAAGCAAUAUUACGCUAA | -2.7 ± 0.43 | -3.2 ± 0.34
47 | AGGAAGCAAUAUUACGGCCU | -1.5 ± 0.3 | -2.44 ± 0.37
48 | UGGAAGCAAUAUUACGGUUC | -2.21 ± 0.2 | -3.84 ± 0.2
49 | GCGUAGCAAUAUUACGUAUU | -2.11 ± 0.19 | -2.67 ± 0.12
50 | GAGGAGCAAUAUUACGUAGC | -1.02 ± 0.37 | -0.914 ± 0.2
51 | UAAAAGCAAUAUUACGAUAU | -0.953 ± 0.1 | -2.59 ± 0.1
52 | UUGAAGCAAUAUUACGAACU | 0.568 ± 0.2 | -1.61 ± 0.21
53 | CUCAAGCAAUAUUACGGUGA | -1.29 ± 0.12 | -2.9 ± 0.12
54 | UAUGAGCAAUAUUACGACAC | -1.97 ± 0.41 | –

Row | Sequence | self-splicing fitness (ln) (37 °C) | self-splicing fitness (ln) (30 °C)
55 | CUCGAGCAAUAUUACGUGCA | -1.01 ± 0.17 | -2.2 ± 0.17
56 | GGCCAGCAAUAUUACGUCCG | -0.963 ± 0.14 | -3.34 ± 0.21
57 | ACUGAGCAAUAUUACGUGAC | -2.95 ± 0.27 | -3.23 ± 0.2
58 | UAGAAGCAAUAUUACGGAUU | -1.37 ± 0.15 | -1.57 ± 0.11
59 | CGUUAGCAAUAUUACGCUAC | – | -1.48 ± 0.24
60 | GGAAAGCAAUAUUACGUCUU | -0.112 ± 0.15 | -0.00168 ± 0.13
61 | CUGAAGCAAUAUUACGAGAA | – | -3.29 ± 0.3
62 | CUUGAGCAAUAUUACGCGGG | -0.302 ± 0.18 | -3.92 ± 0.3
63 | GGUCAGCAAUAUUACGAAGA | -0.837 ± 0.19 | -1.72 ± 0.18
64 | ACACAGCAAUAUUACGGGGC | -3.16 ± 0.19 | -2.8 ± 0.16
65 | AAAGAGCAAUAUUACGCGUG | -1.79 ± 0.12 | -3.02 ± 0.14
66 | UGGUAGCAAUAUUACGUCAA | -0.773 ± 0.15 | -2.31 ± 0.19
67 | ACAGAGCAAUAUUACGUUCG | -0.493 ± 0.12 | -2.06 ± 0.11
68 | UGCAAGCAAUAUUACGUCUU | -0.686 ± 0.1 | -4.52 ± 0.31
69 | UCAAAGCAAUAUUACGUCAG | -0.944 ± 0.097 | -1.75 ± 0.086
70 | UGUAAGCAAUAUUACGCAGG | -3.06 ± 0.24 | -3.22 ± 0.16
71 | UUGUAGCAAUAUUACGGAGA | -2.21 ± 0.42 | –
72 | AAGUAGCAAUAUUACGGCAG | -1.77 ± 0.18 | -2.54 ± 0.18
73 | CCUUAGCAAUAUUACGGUGU | -2.81 ± 0.23 | -3.82 ± 0.24
74 | ACCGAGCAAUAUUACGACAU | -1.3 ± 0.033 | -2.219 ± 0.015
75 | AGUUAGCAAUAUUACGUCGA | -1.02 ± 0.13 | -1.37 ± 0.12
76 | AGAAAGCAAUAUUACGGUUC | -1.83 ± 0.13 | -2.72 ± 0.12
77 | CAGAAGCAAUAUUACGAAGG | -1.1 ± 0.16 | -1.23 ± 0.12
78 | CCCAAGCAAUAUUACGUAUG | -1.47 ± 0.11 | -4.01 ± 0.15
79 | GUCAAGCAAUAUUACGUUGA | -3.51 ± 0.4 | -2.64 ± 0.21
